# Laboratory results reported in the RNAGym collection of RNA variant scans (doi:10.7554/elife.80360).
# B1: Twister Ribozyme (parent)
# chain: AACACUGCCAAUGCCGGUCCCAAGCCCGGAUAAAAGUGGAGGGGGCGG
# Variants of: B1
# Test: self-cleavage, relative activity (ratio to wild type); higher = more cleavage; co-transcriptional
row,Variant,self-cleavage
1,C15G C25U,0.165
2,C21U A34C,0.0844
3,U18A G45A,0.32
4,U12C G28C,0.814
5,C21A C26G,0.0786
6,C14A G36A,0.651
7,A10U G44C,0.937
8,G17A C27G,0.243
9,G28C G39A,0.445
10,C5A G47A,0.523
11,G13C C20U,0.125
12,C9A A30C,0.608
13,A23G G41C,0.138
14,C46A G48A,0.837
15,C14U G47A,0.947
16,C3U G47C,0.233
17,G43U G45U,0.358
18,A4U A11U,0.193
19,U6A G44C,0.874
20,C14G A22G,0.0913
21,G16C C21U,0.0834
22,C5A C20U,0.465
23,G28U G45A,0.637
24,G28U G45C,0.175

row,Variant,self-cleavage
1,C14G A34C,0.0831
2,C20G G36C,0.168
3,U6G G7C,0.873
4,G43U G48A,0.175
5,C3A G42A,0.0462
6,C8G U37A,0.115
7,C3A G29U,0.231
8,G39C G44U,0.169
9,G16C A32U,0.456
10,A1G C26U,0.188
11,C9U G39C,0.151
12,C15G C27U,0.094
13,A4U A30C,0.0756
14,G16A A33U,0.858
15,U12C G36C,0.559
16,U12C C21G,0.0654
17,G7A A23U,0.12
18,C27U A30U,0.758
19,C26U U31C,0.495
20,G17A A35U,0.869
21,A1U G47C,0.068
22,G24U U37G,0.092
23,C25A G36C,0.0709
24,U12G A34C,0.287

row,Variant,self-cleavage
1,A23G G39A,0.143
2,A10C C20G,0.0778
3,G13C G48A,0.115
4,A10G A32G,1.15
5,A2C A11U,0.108
6,A10U G38U,0.863
7,G42A G48U,0.397
8,A32U G47C,0.583
9,G13C G44A,0.584
10,G24A G38U,0.126
11,A40C G43U,0.136
12,U18C C27U,0.182
13,G28U G48U,0.809
14,A4C A40G,0.0825
15,C8U C15A,0.318
16,C8U C15G,0.0382
17,C15G A40C,0.0616
18,A30G A33G,0.806
19,G43U G44A,0.722
20,G39C G43C,0.0898
21,G39C G43U,0.112
22,A34G A40U,0.122
23,A11C A34G,0.713
24,A34C G41U,0.112

row,Variant,self-cleavage
1,C20G A35G,0.094
2,U31A G48C,1.19
3,A11G G44A,0.778
4,G36U G47U,0.412
5,C20G G47C,0.133
6,G7C G42A,0.062
7,A2U A33G,0.503
8,C9A A35C,0.66
9,A11U U18C,0.617
10,U6C A11G,0.535
11,C21U G24U,0.106
12,A33C G47A,0.782
13,C9A G17U,0.0549
14,A40C G45C,0.154
15,U6A A30U,0.981
16,A10U U37G,0.602
17,C5G A10G,1.17
18,A22U U31C,0.935
19,A11G C19G,0.538
20,C26U G39U,0.102
21,A1G G16C,0.561
22,U18C A40C,0.0612
23,U18C A40U,0.113
24,A1C G47A,0.168

row,Variant,self-cleavage
1,C3U A32U,0.402
2,A2U A23C,0.107
3,A1U C19G,0.0665
4,A30U A32G,0.928
5,A40U G47A,0.164
6,U12G G44A,0.784
7,U12C C27G,0.0656
8,C20G G39C,0.0945
9,G24C G36U,0.0983
10,U6C A23U,0.0534
11,G28U A40U,0.156
12,U37C G47A,0.478
13,U31C G42C,0.413
14,C8A U12A,0.475
15,C25G G48U,0.21
16,A11G G41U,0.65
17,G24U G45C,0.0947
18,G13A C27G,0.073
19,C19A G44C,0.746
20,A34G G36A,0.164
21,G16U G43A,0.203
22,G16U A22C,0.925
23,A4U G47A,0.0604
24,C9A A33U,0.638

row,Variant,self-cleavage
1,G17C G39A,0.0934
2,A4G A10U,1.04
3,U18G G24U,0.0765
4,G7U G38C,0.0818
5,U18G C20U,0.102
6,G13C A22G,0.103
7,C25A G38C,0.126
8,C8G C9U,0.0635
9,G17U G47C,0.183
10,U18A C19G,0.0926
11,C20A A40G,0.0838
12,A23G A32C,0.366
13,G17A G28U,0.258
14,U12G C19G,0.686
15,C8A G41A,0.175
16,A10G C15A,0.707
17,G13U C20G,0.1
18,A11U A30G,1.11
19,U6C G42U,0.107
20,A23G G48U,0.354
21,C8A G16U,0.144
22,U6G U18A,0.0684
23,A1G A35G,0.326
24,C9A A23G,0.055

row,Variant,self-cleavage
1,U18A G48A,0.279
2,C5U C25A,0.0792
3,A10C G42C,0.345
4,A40U G48U,0.21
5,U12G,0.946
6,A4U C19A,0.0659
7,G39U C46A,0.19
8,U6C G38U,0.282
9,C14A A35C,0.863
10,C20A C25G,0.0839
11,C21A G42C,0.15
12,G24C C46U,0.126
13,G16A C46A,0.994
14,A34U G39A,0.199
15,C9G C27U,0.326
16,C9G C27A,0.098
17,A23C G38C,0.219
18,C15U A23U,0.291
19,U6A C46A,0.809
20,C26A G39C,0.0938
21,C27U G47A,0.56
22,G16A A34U,0.417
23,C21U G28U,0.102
